Earlier results in PMC5120336.

Target: IRAK-4 kinase domain (Homo sapiens) (UniProt Q9NWZ3)

IRAK-4 kinase domain, sequence (Q9NWZ3 154-460): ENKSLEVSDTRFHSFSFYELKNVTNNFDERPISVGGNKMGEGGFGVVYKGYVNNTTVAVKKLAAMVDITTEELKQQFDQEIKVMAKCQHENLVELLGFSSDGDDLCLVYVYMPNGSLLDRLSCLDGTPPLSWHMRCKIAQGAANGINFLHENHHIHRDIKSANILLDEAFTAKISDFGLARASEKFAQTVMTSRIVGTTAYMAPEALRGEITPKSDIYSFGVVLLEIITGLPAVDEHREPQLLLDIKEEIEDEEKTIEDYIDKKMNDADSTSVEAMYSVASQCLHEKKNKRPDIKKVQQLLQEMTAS

Kd: 2500 nM
Substance: IRAK-4 kinase domain (from UniProt Q9NWZ3)
